Measurements: patent US20250277022A1 (STAIDSON BEIJING BIOPHARMACEUTICALS, published 2025)
Read-outs that look alike come from different tables or passages of the source.

Experiments:
human TSLP [1] = molecular target: T1, human TSLP (human, UniProt Q969D9 29-159); experiment: cell-based or functional assay
human TSLP [2] = molecular target: T1, human TSLP; experiment: ELISA, plate coated with human TSLP, test antibodies as human IgG1
Experimental: (§1) ELISA Screening: Monoclonal scFv antibodies were selected and subjected to ligand binding assays. The first assay was designed to identify scFv antibodies that bound human TSLP and/or cynomolgus TSLP. Briefly, a 96-well plate was coated with human TSLP or cynomolgus TSLP in PBS at 0.1 μg/well and left overnight at 4° C. Before loading the scFv antibodies, the plates were washed with TBST, blocked for 1-2 hours at 37° C. using 5% milk and washed again with TBST. Each scFv sample was first diluted to 40 μg/mL, and 150 μL was added to the first row of wells. The 40 μg/mL scFv samples were then serially diluted at a 1:3 ratio and added to the remaining wells. After incubating for an hour at 37° C., followed by washing with TBST for 6 times, 100 μl of the secondary antibody (HRP labeled mouse anti-flag (1:2500)) was added to each well. After incubation for an hour under 37° C., the plate was washed for 3 times using TBST. TMB was then added at 100 μL/well and incubated for 10-20 minutes at 37° C. 2 M H₂SO₄ was used to stop the reaction. The ELISA results (OD405) were then analyzed and the binding curves were generated by PRISM.

cynomolgus monkey TSLP = molecular target: T2, cynomolgus monkey TSLP (cynomolgus monkey, UniProt A0A7N9CAT7 29-159); experiment: ELISA, plate coated with cynomolgus monkey TSLP, test antibodies as human IgG1
T2 construct: also called cynomolgus TSLP; recombinant cynomolgus monkey TSLP
Experimental: as §1

human TSLP [3] = molecular target: T1, human TSLP; experiment: cell-based or functional assay; remark: listed apart in the source
human TSLP [4] = molecular target: T1, human TSLP; experiment: cell-based or functional assay; remark: listed apart in the source
human TSLP [5] = molecular target: T1, human TSLP; experiment: ELISA, plate coated with human TSLP, test antibodies as human IgG1; remark: listed apart in the source
Experimental: as §1

T2 sequence (A0A7N9CAT7 entry or part of it): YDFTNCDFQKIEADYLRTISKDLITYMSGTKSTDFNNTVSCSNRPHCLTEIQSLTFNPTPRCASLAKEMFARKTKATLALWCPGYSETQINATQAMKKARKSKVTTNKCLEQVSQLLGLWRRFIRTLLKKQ
T1 sequence (Q969D9 29-159 R127A/R130S limits assumed): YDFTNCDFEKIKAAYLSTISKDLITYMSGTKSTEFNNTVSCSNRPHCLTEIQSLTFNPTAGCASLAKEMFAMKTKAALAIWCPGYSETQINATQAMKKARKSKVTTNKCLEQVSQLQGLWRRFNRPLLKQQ

Binder	IC50, inhibition of human TSLP-induced Stat5 activation (Stat5-luciferase reporter, Ba/F3 cells with hTSLPR and hIL7Ra) (human TSLP [1])	EC50 (read off the curve) (human TSLP [2])	EC50 (read off the curve) (cynomolgus monkey TSLP)	IC50, inhibition of human TSLP-induced Stat5 activation (Stat5-luciferase reporter, Ba/F3 cells with hTSLPR and hIL7Ra) (human TSLP [3])	IC50, inhibition of TSLP induced proliferation of Ba/F3-TSLPR-IL7Ra cells (CellTiter-Glo) (human TSLP [4])	EC50 (read off the curve) (human TSLP [5])
TSLP-0101 (antibody, V domains shown) VH: QVQLQESGPGLVKPSETLSLTCAVSGYSISSGYGWSWIRQPPGKGLEWIGYISYYGSISYNPSLKSRVTISRDTSKNQFSLKLSSVTAADTAVYYCARTNLLYFDSWGQGTLVTVSS VL: not shown	0.0092 µg/mL	~0.03 µg/mL	~0.7 µg/mL	–	–	–
TSLP-0106 (antibody, V domains shown) VH: QVQLQESGPGLVKPSETLSLTCTVSGYSISSGYGWSWIRQPPGKGLEWIGYISYYGSISYNPSLKSRVTISVDTSKNQFSLKLSSVTAADTAVYYCARTNLLYFDSWGQGTLVTVSS VL: EIVMTQSPATLSLSPGERATLSCRASQSVSNNLAWYQQKPGQAPRLLIYDASSRATGIPARFSGSGSGTDFTLTISSLEPEDFAVYYCQQYSDWPQYTFGQGTKVEIK	0.0169 µg/mL	~0.05 µg/mL	~0.9 µg/mL	–	–	–
TSLP-0105 (antibody, V domains shown) VH: QVQLQESGPGLVKPSETLSLTCAVSGYSISSGYGWSWIRQPPGKGLEWIGYISYYGSISYNPSLKSRVTISVDTSKNQFSLKLSSVTAADTAVYYCARTNLLYFDSWGQGTLVTVSS VL: not shown	0.0182 µg/mL	~0.05 µg/mL	~0.7 µg/mL	–	–	–
TSLP-0110 (antibody, V domains shown) VH: QVQLQESGPGLVKPSETLSLTCAVSGYSISSGYGWSWIRQPPGKGLEWIGYISYYGSTSYNPSLKSRVTISRDTSKNQFSLKLSSVTAADTAVYYCARTNLLYFDSWGQGTLVTVSS VL: EIVMTQSPATLSLSPGERATLSCRASQSVSSYLAWYQQKPGQAPRLLIYDTSSRATGIPARFSGSGSGTDFTLTISSLEPEDFAVYYCQQYSNWPQYSFGQGTKVEIK	–	–	–	0.0245 µg/mL	0.129 µg/mL	~0.08 µg/mL
TSLP-0102 (antibody, V domains shown) VH: QVQLQESGPGLVKPSETLSLTCTVSGYSISSGYGWSWIRQPPGKGLEWIGYISYYGSISYNPSLKSRVTISRDTSKNQFSLKLSSVTAADTAVYYCARTNLLYFDSWGQGTLVTVSS VL: EIVMTQSPATLSLSPGERATLSCRASQSVSNNLAWYQQKPGQAPRLLIYDASSRATGIPARFSGSGSGTDFTLTISSLEPEDFAVYYCQQYSDWPQYTFGQGTKVEIK	0.0114 µg/mL	~0.04 µg/mL	~0.7 µg/mL	–	–	–
TSLP-0109 (antibody, V domains shown) VH: QVQLQESGPGLVKPSETLSLTCAVSGYSISSGYGWSWIRQPPGKGLEWIGYISYYGSTSYNPSLKSRVTISRDTSKNQFSLKLSSVTAADTAVYYCARTNLLYFESWGQGTLVTVSS VL: EIVMTQSPATLSLSPGERATLSCRASQGISSYLAWYQQKPGQAPRLLIYDASNLQSGIPARFSGSGSGTDFTLTISSLEPEDFAVYYCQQYSNWPQYSFGQGTKVEIK	–	–	–	0.0228 µg/mL	0.0304 µg/mL	~0.07 µg/mL
TSLP-0104 (antibody, V domains shown) VH: QVQLQESGPGLVKPSETLSLTCAVSGYSISSGYGWSWIRQPPGKGLEWIGYISYYGSISYNPSLKSRVTISVDTSKNQFSLKLSSVTAADTAVYYCARTNLLYFDSWGQGTLVTVSS VL: EIVMTQSPATLSLSPGERATLSCRASQSVSNNLAWYQQKPGQAPRLLIYDASSRATGIPARFSGSGSGTDFTLTISSLEPEDFAVYYCQQYSDWPQYTFGQGTKVEIK	0.0154 µg/mL	~0.04 µg/mL	~0.7 µg/mL	–	–	–
